Data as given in publication PMC6704107 (2019).
Residue numbers refer to the chain shown, from its start.

Legend:
AAVR PKD1-5 S425A = biological target: T1, AAVR PKD1-5 S425A (UniProt Q8IZA0-1 1-1049, S425A); experiment: SPR
T1 sequence: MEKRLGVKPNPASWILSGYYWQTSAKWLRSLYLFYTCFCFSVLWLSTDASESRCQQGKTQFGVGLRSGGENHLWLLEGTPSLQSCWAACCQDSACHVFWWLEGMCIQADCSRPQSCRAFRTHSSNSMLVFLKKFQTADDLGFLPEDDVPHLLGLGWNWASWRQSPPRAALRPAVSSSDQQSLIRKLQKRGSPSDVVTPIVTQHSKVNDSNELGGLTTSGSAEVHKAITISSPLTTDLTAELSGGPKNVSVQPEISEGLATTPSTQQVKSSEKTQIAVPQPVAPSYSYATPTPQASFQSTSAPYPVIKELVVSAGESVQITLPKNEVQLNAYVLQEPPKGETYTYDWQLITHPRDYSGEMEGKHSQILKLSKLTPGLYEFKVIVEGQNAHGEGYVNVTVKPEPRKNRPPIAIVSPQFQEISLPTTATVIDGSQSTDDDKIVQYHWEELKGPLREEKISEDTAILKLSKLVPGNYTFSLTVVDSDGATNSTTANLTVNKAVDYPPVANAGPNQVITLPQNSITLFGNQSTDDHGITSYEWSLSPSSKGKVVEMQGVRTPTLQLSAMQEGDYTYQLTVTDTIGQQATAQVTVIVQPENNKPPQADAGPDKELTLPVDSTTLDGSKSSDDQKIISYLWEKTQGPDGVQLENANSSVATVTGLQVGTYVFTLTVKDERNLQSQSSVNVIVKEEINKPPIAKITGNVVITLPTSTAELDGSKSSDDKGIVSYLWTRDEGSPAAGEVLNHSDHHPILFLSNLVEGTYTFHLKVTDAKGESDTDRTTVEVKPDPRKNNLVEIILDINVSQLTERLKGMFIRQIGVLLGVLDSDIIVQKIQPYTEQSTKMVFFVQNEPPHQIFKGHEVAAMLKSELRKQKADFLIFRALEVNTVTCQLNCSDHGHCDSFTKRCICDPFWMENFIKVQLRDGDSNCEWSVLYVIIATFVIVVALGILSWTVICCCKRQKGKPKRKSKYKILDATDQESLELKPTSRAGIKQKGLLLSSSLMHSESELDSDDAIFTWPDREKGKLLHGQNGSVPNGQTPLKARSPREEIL

AAVR PKD1-5 D435A = biological target: T2, AAVR PKD1-5 D435A (UniProt Q8IZA0-1 1-1049, D435A); experiment: SPR
T2 sequence: T1 sequence with A425S, D435A

B1: Adeno-associated virus 1 (AAV1) particle, wild-type capsid (complex)
chain: MAADGYLPDWLEDNLSEGIREWWDLKPGAPKPKANQQKQDDGRGLVLPGYKYLGPFNGLDKGEPVNAADAAALEHDKAYDQQLKAGDNPYLRYNHADAEFQERLQEDTSFGGNLGRAVFQAKKRVLEPLGLVEEGAKTAPGKKRPVEQSPQEPDSSSGIGKTGQQPAKKRLNFGQTGDSESVPDPQPLGEPPATPAAVGPTTMASGGGAPMADNNEGADGVGNASGNWHCDSTWLGDRVITTSTRTWALPTYNNHLYKQISSASTGASNDNHYFGYSTPWGYFDFNRFHCHFSPRDWQRLINNNWGFRPKRLNFKLFNIQVKEVTTNDGVTTIANNLTSTVQVFSDSEYQLPYVLGSAHQGCLPPFPADVFMIPQYGYLTLNNGSQAVGRSSFYCLEYFPSQMLRTGNNFTFSYTFEEVPFHSSYAHSQSLDRLMNPLIDQYLYYLNRTQNQSGSAQNKDLLFSRGSPAGMSVQPKNWLPGPCYRQQRVSKTKTDNNNSNFTWTGASKYNLNGRESIINPGTAMASHKDDEDKFFPMSGVMIFGKESAGASNTALDNVMITDEEEIKATNPVATERFGTVAVNFQSSSTDPATGDVHAMGALPGMVWQDRDVYLQGPIWAKIPHTDGHFHPSPLMGGFGLKNPPPQILIKNTPVPANPPAEFSATKFASFITQYSTGQVSVEIEWELQKENSKRWNPEVQYTSNYAKSANVDFTVDNNGLYTEPRPIGTRYLTRPL
AAVR PKD1-5 S425A
  Kd: 3.88 µM
AAVR PKD1-5 D435A
  Kd: 13.6 µM
